The values below come from publication PMC8759595.

One assay addresses endogenous VAPB (COS-7 cells). Briefly: co-immunoprecipitation (Myc-TRAP) with quantified immunoblot. Particulars: COS-7 cell lysate treated with λ-phosphatase before IP, relative to phosphatase-inhibitor sample; parent: est. 0.5; read off a plot. (In western blotting, separated proteins are transferred to a membrane and probed.)
Regarding “Myc-ACBD5 (from UniProt Q5T8D3-2) S259E; S261E; S263E”, the other: remaining VAPB binding (% of untreated) (% of untreated) came out at 22.

Still in this assay, the particulars now being: COS-7 cell lysate treated with λ-phosphatase before IP, relative to phosphatase-inhibitor sample; parent: est. 4.5; read off a plot.
Regarding Myc-ACBD5 (from UniProt Q5T8D3-2) S259E, the other: remaining VAPB binding (% of untreated) (% of untreated) is 7.5.
Same read-out and setting: the same measure for Myc-ACBD5 (from UniProt Q5T8D3-2) S261E: 21.
Same read-out and setting: the same measure for Myc-ACBD5 (from UniProt Q5T8D3-2) S263E: 8.

Still in this assay, the particulars now being: COS-7 cell lysate; at least three independent IPs; parent: est. 1.0; read off a plot.
For Myc-ACBD5 (from UniProt Q5T8D3-2) S259A, the ratio to parent worked out at 0.81.
In the case of “Myc-ACBD5 (from UniProt Q5T8D3-2) S259A; S261A”, the ratio to parent amounted to 0.3.
On the same count and under the same terms, the same measure for “Myc-ACBD5 (from UniProt Q5T8D3-2) S259A; S261A; S263A”: 0.15; for Myc-ACBD5 (from UniProt Q5T8D3-2) S261A: 0.35; for “Myc-ACBD5 (from UniProt Q5T8D3-2) S261A; S263A”: 0.22.
Still for that read-out and setting: the same measure for Myc-ACBD5 (from UniProt Q5T8D3-2) S263A: 0.42; for “Myc-ACBD5 (from UniProt Q5T8D3-2) T258A; S259A”: 0.53.

The next assay concerns the target endogenous VAPB (COS-7 cells). Description: co-immunoprecipitation (anti-FLAG) with quantified immunoblot. The note with it: COS-7 cell lysate; n = 5; parent: est. 1.0; read off a plot.
On to “FLAG-ACBD4 (from UniProt Q8NC06) S166A; S169A; S171A”, for which the ratio to parent came out at 1.7.
Same read-out and setting: the same measure for “FLAG-ACBD4 (from UniProt Q8NC06) S166E; S169E; S171E”: 4.4.
